From article PMC10477244

Target: SARS-CoV-2 virus particles (spike presumed target) (SARS-CoV-2 (isolate not in material)) (UniProt P0DTC2)

GGTATTGAGGGTCGCATCGTAATAGCGCATGTTGTGAGGCAGGCGCGAATCAGCTCGTGAGATGGCTCTAACTCTCCTCT [aptamer T (Apt@T2)]
binding signal: 0.74 A450

GGTATTGAGGGTCGCATCGTTACTGGACCAAACAGCACAAAGGACGCCCATAAACCCGGATGGCTCTAACTCTCCTCT [aptamer R (Apt@R2)]
binding signal: 0.83 A450
